Assay [1] addresses T1, 14-3-3-ζ (Homo sapiens, UniProt P63104).
T1 construct: His10 (cleaved yes); made in house
T1 sequence (P63104 1-245): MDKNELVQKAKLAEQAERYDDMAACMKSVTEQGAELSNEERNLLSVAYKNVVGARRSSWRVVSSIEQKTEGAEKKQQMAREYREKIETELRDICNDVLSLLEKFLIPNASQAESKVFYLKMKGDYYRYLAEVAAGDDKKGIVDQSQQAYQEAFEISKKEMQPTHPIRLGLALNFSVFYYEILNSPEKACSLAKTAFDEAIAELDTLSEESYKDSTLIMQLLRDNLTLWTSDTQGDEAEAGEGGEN
Kind of assay: ITC of integrin tail fragments with 14-3-3-ζ. As to conditions: 298 K; for Kd: 20 mM sodium phosphate, 50 mM NaCl pH 6.5, integrin fragment in cell (80–200 μM), 14-3-3-ζ in syringe (0.75–2 mM), one-site model, repeated twice; for binding to 14-3-3-ζ by ITC, in words: pH 6.5, fragment in cell, 14-3-3-ζ in syringe. The format is binding. How it is done: Phosphorylated α4 synthetic peptides were purchased from GL Biochem Ltd. (Shanghai). All recombinant proteins and synthetic peptides were prepared in 20 mM sodium phosphate and 50 mM NaCl (pH 6.5), and concentrations were determined by UV absorbance at 280 nm. ITC experiments using a VP-ITC200 instrument (MicroCal) were performed at 298 K as follows: the cell (volume, ~ 200 μl) contained the different integrin tail fragments, and the syringe (volume, ~ 40 μl) contained 14-3-3-ζ. A first injection of 2 μl was followed by 15 injections of 2.5 μl, with a stirring speed of 1500 rpm and a delay between injections of 180 s. A blank titration was performed by injecting 14-3-3-ζ into buffer to take the heat of dilution into account. Experiments were repeated twice for each sample. Raw data were processed and fitted with MicroCal Origin software using a one-site model where the error function is calculated as the sum of the squared deviations between the data and the model curve.

Assay [2] has as its target T1, 14-3-3-ζ. Description: 15N-1H HSQC NMR titration of 15N-labeled integrin tails with unlabeled 14-3-3-ζ. The format is binding. As to conditions: 15N-labeled tail 0.1 mM, equimolar unlabeled 14-3-3-ζ; NMR buffer pH 6.5, 25 °C. How it is done:
Samples were prepared in NMR buffer (pH 6.5) with 5% D2O, and experiments were performed at 25 °C. Titration experiments were collected on a 500-MHz spectrometer using a water flip-back-embedded gradient enhanced ^15N–^1H HSQC pulse sequence.[46] For the assignment of the α4 and β2 backbone resonances, ^15N–^13C integrin tails of 0.6 mM concentration were used to measure CBCA(CO)NH and CBCANH experiments on a Bruker 500-MHz instrument equipped with a cryogenic probe head. Data were processed using NMRPipe[47] and analyzed with the programs CARA/XEASY[48] or CCPN Analysis.[49]

In assay [3] the target is T1, 14-3-3-ζ. Description: Fluorescence polarization titration of fluorescein-labeled integrin tails with 14-3-3-ζ. The format is binding. The note with it: fluorescein-labeled tail, 1 μM; ex 485 nm, em 520 nm. How it is done:
Fig. 6 Fluorescence polarization and ITC of interactions between integrin tails and 14-3-3-ζ. (a) Fluorescence polarization titrations of fluorescein-labeled β1A, β3 and α4 with 14-3-3-ζ. […] (b–d) ITC sensorgram of an in-cell 200 μM β1A, β2 (same as in Fig. 5a) or β3 samples injected with 2 mM 14-3-3-ζ.
For fluorescence polarization experiments, integrin tails were labeled with fluorescein-5-maleimide (Invitrogen) linked to an engineered C-terminal Cys residue. Measurements were performed using 96-well microplates (Corning) in a PHERAstar FS microplate reader (BMG Labtech). Fluorescein-labeled integrin tails at 1 μM concentration were excited at 485 nm, and polarization was recorded at 520 nm.

Assay [4] has as its target T2, 14-3-3-ζ (UniProt P63104 1-245).
T2 construct: 14-3-3 protein zeta; Expressed from the same modified pET16b vector as the integrin tails (His10, 3C site); also called 14-3-3-ζ wt; unlabeled 14-3-3-ζ; not shown: His10, N-terminal, cleaved
T2 sequence: T1 sequence (P63104 1-245)
Kind of assay: fluorescence polarisation; fluorescein-labeled integrin tails at 1 μM titrated with increasing amounts of 14-3-3-ζ; 96-well plates; excitation 485 nm, emission 520 nm; single-site model. The note with it: both partners purified.

For assay [5], the target named is T2, 14-3-3-ζ. Description: ITC; integrin tail fragment in the cell (80-200 μM), 14-3-3-ζ in the syringe (0.75-2 mM); 298 K; 20 mM sodium phosphate, 50 mM NaCl, pH 6.5; one-site model. As to conditions: both partners purified.
Assay [6] has as its target T2, 14-3-3-ζ. Kind of assay: NMR titration; 15N-1H HSQC of 15N-labeled integrin tail (0.1 mM) before and after addition of unlabeled 14-3-3-ζ (wt or variant; equimolar, 0.1 mM); 20 mM sodium phosphate, 50 mM NaCl, pH 6.5, 5% D2O, 25 °C; read-out: loss of resonance intensity (I/Io). The note with it: both partners purified.

Residue numbers refer to the chain shown, from its start. Numbers in names are those of the source. Where “and” joins values, the source holds several entries; their conditions need not be identical. Equal values may be shown once. Entries after “also recorded” stand apart in the source; their conditions may differ. Non-standard residues stand in square brackets, D forms with d. Residues, ends and D or L forms follow the SMILES beside them. No end group written: not given here. fluorescein‑5‑maleimide = fluorescein-5-maleimide linked to an engineered C-terminal Cys; pT = C[C@@H](OP(=O)(O)O)[C@H](N)C(=O)O; pS = N[C@@H](COP(=O)(O)O)C(=O)O Where only a bound is given, the exact number is not on record here.

On to `CC[C@H](C)[C@H](NC(=O)[C@H](COP(=O)(O)O)NC(=O)[C@H](CCCCN)NC(=O)[C@H](Cc1ccc(O)cc1)NC(=O)[C@H](CCC(N)=O)NC(=O)[C@H](CCCNC(=N)N)NC(=O)[C@H](CCCCN)NC(=O)[C@@H](N)Cc1ccccc1)C(=O)N[C@@H](CC(C)C)C(=O)N[C@@H](CCC(N)=O)C(=O)N[C@@H](CCC(=O)O)C(=O)O` [α4-11pS] (H-FKRQYK[pS]ILQE-OH), for which the Kd at 14-3-3-ζ [1] is > 300 µM and 315 µM.

Molecule “KALIHLSDLREYRRFEKEKLKSQWNNDNPLFKSA[pT]TTVMNPKFAES [β2-45pT]” gave a Kd on 14-3-3-ζ [1] of 7.9 ± 3.1 µM.

Turning to “paxillin: construct of the N-terminal region of paxillin (residues 1–323) that included all LD motifs”, the “binding to 14-3-3-ζ by ITC, in words” value in the assay with 14-3-3-ζ [1] is reported as “no pairwise interaction was detected by ITC”.

On to “GS KLLMIIHDRREFAKFEKEKMNAKWDTQENPIYKSPINNFKNPNYGRKAGL (GSKLLMIIHDRREFAKFEKEKMNAKWDTQENPIYKSPINNFKNPNYGRKAGL; left off: His10, N-terminal, cleaved) [β1D wt, recombinant β1D integrin tail, residues 752–801]”, for which, in the assay with 14-3-3-ζ [2], the “change of integrin tail resonances on addition of 14-3-3-ζ, in words” value (“change of integrin tail resonances” below) is given as “interacts with 14-3-3-ζ in a very similar way to β1A”.

On to “YKSAVpTTVVNP [β1-11pT, synthetic β1 phospho-threonine peptide, residues 783–793]”, for which the “binding to 14-3-3-ζ by ITC, in words” value on 14-3-3-ζ [1] is reported as “no binding”.

Turning to “GS RLSVEIYDRREYSRFEKEQQQLNWKQDSNPLYKSAITTTINPRFQEADSPTL (GSRLSVEIYDRREYSRFEKEQQQLNWKQDSNPLYKSAITTTINPRFQEADSPTL; left off: His10, N-terminal, cleaved) [β7 wt, recombinant β7 integrin tail, residues 747–798]”, the “change of integrin tail resonances” value in the assay with 14-3-3-ζ [2] is “intensity reduction for several resonances”.

On to “GSKALIHLSDLREYRRFEKEKLKSQWNNDNPLFKSATTTVMNPKFAES [β2 wt, recombinant unphosphorylated β2 integrin tail, residues 724–769]”, for which the “binding to 14-3-3-ζ by ITC, in words” value on 14-3-3-ζ [1] is recorded as “only a weak interaction; also recorded: the interaction is weak, in the millimolar range”; on 14-3-3-ζ [1] (listed as β2), “Only β1A gave a binding curve that could be fitted”. Moreover, the “change of integrin tail resonances” value on 14-3-3-ζ [2] is reported as “selective broadening of β2 resonances”.

As to “paxillin residues 111–128: phosphorylated peptide containing a putative 14-3-3 binding motif, corresponding to paxillin residues 111–128 (VGEEEHVYSFPNKQKSAE; also: phosphorylated; UniProt P49023 111-128, looked up, fragment)”, in the assay with 14-3-3-ζ [1], the “binding to 14-3-3-ζ by ITC, in words” value is “no interaction was detected by ITC”.

`CC[C@H](C)[C@H](NC(=O)[C@H](Cc1ccc(O)cc1)NC(=O)[C@H](CO)NC(=O)[C@H](Cc1c[nH]c2ccccc12)NC(=O)[C@H](CO)NC(=O)[C@H](CC(=O)O)NC(=O)[C@H](CCCNC(=N)N)NC(=O)[C@H](CCCNC(=N)N)NC(=O)[C@H](CC(N)=O)NC(=O)[C@H](CCC(=O)O)NC(=O)[C@H](CCC(=O)O)NC(=O)[C@H](CCC(N)=O)NC(=O)[C@H](CC(C)C)NC(=O)[C@@H](NC(=O)[C@H](COP(=O)(O)O)NC(=O)[C@H](CCCCN)NC(=O)[C@H](Cc1ccc(O)cc1)NC(=O)[C@H](CCC(N)=O)NC(=O)[C@H](CCCNC(=N)N)NC(=O)[C@H](CCCCN)NC(=O)[C@H](Cc1ccccc1)NC(=O)[C@H](Cc1ccccc1)NC(=O)CN)[C@@H](C)CC)C(=O)N[C@@H](CC(N)=O)C(=O)N[C@@H](CO)C(=O)N[C@@H](CCCCN)C(=O)N[C@@H](CO)C(=O)N[C@@H](CC(N)=O)C(=O)N[C@@H](CC(=O)O)C(=O)N[C@@H](CC(=O)O)C(=O)O` [α4-30pS] (H-GFFKRQYK[pS]ILQEENRRDSWSYINSKSNDD-OH) gave a dissociation constant Kd at 14-3-3-ζ [1] of 23.6 ± 2.1 µM.

On to “GPLGSKAGFFKRQYKDILQEENRRDSWSYINSKSNDD [α4 S1011D, recombinant α4 integrin tail phospho-mimetic, S1011D]”, for which the “change of integrin tail resonances” value at 14-3-3-ζ [2] is recorded as “significant decrease in α4 amide resonance intensities”.

Turning to “GS KLLITIHDRKEFAKFEEERARAKWDTANNPLYKEATSTFTNITYRGT [β3 wt, recombinant β3 integrin tail, residues 742–788]”, at 14-3-3-ζ [1], the “binding to 14-3-3-ζ by ITC, in words” value was “Only β1A gave a binding curve that could be fitted”. In addition, at 14-3-3-ζ [3], the “binding to 14-3-3-ζ by fluorescence polarization, in words” value is on record as “No binding was detected”. Also, at 14-3-3-ζ [2], the “change of integrin tail resonances” value was “intensity reduction for several resonances”.

In the case of GSKLLMIIHDRREFAKFEKEKMNAKWDTGENPIYKSAVTTVVNPKYEGKC(fluorescein‑5‑maleimide) (domain or fragment) [fluorescein-labeled β1A integrin tail], the Kd with 14-3-3-ζ [4] worked out at 95 ± 16 µM.

B1: α4-30pS phospho-peptide (peptide)
peptide: GFFKRQYK[pS]ILQEENRRDSWSYINSKSNDD
notes: integrin α4 cytoplasmic tail, residues 1003-1032 of UniProt P13612; S1011 is phospho-serine; also called phosphorylated α4-derived peptide; source: synthetic peptide, bought: GL Biochem Ltd. (Shanghai)
As to B1, the Kd with 14-3-3-ζ [5] was roughly 24 µM.

B2: α4 integrin cytoplasmic tail S1011D (domain or fragment, human (from the printed UniProt entry))
chain: GPLGSKAGFFKRQYKDILQEENRRDSWSYINSKSNDD
notes: residues from the cloning tag at the N-terminus; integrin α4 cytoplasmic tail, residues 1001-1032 of UniProt P13612, with S1011D; 15N-labelled for NMR, unlabelled for ITC; also called α4 S1011D; α4 phospho-mimetic; not shown: His10, N-terminal, cleaved
As for B2, the Kd with 14-3-3-ζ [5] was roughly 60 µM.

B3: β1A integrin cytoplasmic tail, wild type (domain or fragment, human (from the printed UniProt entry))
chain: GSKLLMIIHDRREFAKFEKEKMNAKWDTGENPIYKSAVTTVVNPKYEGK
notes: residues from the cloning tag at the N-terminus; integrin β1A cytoplasmic tail, residues 752-798 of UniProt P05556; 15N-labelled for NMR, unlabelled for ITC; also called β1A wt; not shown: His10, N-terminal, cleaved
In the assay with 14-3-3-ζ [5], B3 registered a Kd of 280 ± 40 µM.

B4: β2-45pT phospho-peptide (peptide)
peptide: KALIHLSDLREYRRFEKEKLKSQWNNDNPLFKSATTTVMNPKFAES
modifications: also: phospho-threonine at 758
notes: integrin β2 cytoplasmic tail, residues 724-769 of UniProt P05107; T758 is phospho-threonine; also called long β2 phospho-peptide; source: synthetic peptide
In turn, B4 yielded a dissociation constant Kd with 14-3-3-ζ [5] of 8 µM.

B5: α4-11pS phospho-peptide (peptide)
peptide: FKRQYK[pS]ILQE
notes: integrin α4 cytoplasmic tail, residues 1005-1015 of UniProt P13612; S1011 is phospho-serine; also called short phosphorylated α4 integrin peptide; source: synthetic peptide, bought: GL Biochem Ltd. (Shanghai)
Molecule B5 displayed a Kd with 14-3-3-ζ [5] greater than 300 µM.

B6: α4 integrin cytoplasmic tail, wild type (domain or fragment, human (from the printed UniProt entry))
chain: B2 chain with D16S
notes: residues from the cloning tag at the N-terminus; integrin α4 cytoplasmic tail, residues 1001-1032 of UniProt P13612; 15N-labelled for NMR, unlabelled for ITC; also called α4 wt; full-length α4 integrin tail; not shown: His10, N-terminal, cleaved
Turning to B6, in the assay with 14-3-3-ζ [6], the binding result is recorded as “binds”.

B7: β2-11pT phospho-peptide (peptide)
peptide: PLFKSATTTVM
modifications: also: phospho-threonine at 758
notes: integrin β2 cytoplasmic tail, residues 752-762 of UniProt P05107; T758 is phospho-threonine; also called short β2 phospho-peptide; source: synthetic peptide
In the assay with 14-3-3-ζ [5], B7 gave a Kd of 4 µM.

(Values after PMC4068353, “Characterization of 14-3-3-ζ Interactions with Integrin Tails” (Journal of Molecular Biology, 2013).)
